The source of these data is publication PMC6718144, “Structure of the archaeal chemotaxis protein CheY in a domain-swapped dimeric conformation” (Acta Crystallographica. Section F, Structural Biology …, 2019).

This data set deals with the molecule itself. The data set is described as follows: cross-linking; glutaraldehyde, incubation 1, 2, 5 and 10 min before quenching; Coomassie-stained SDS-PAGE.

B1: CheF from Pyrococcus horikoshii (PhCheF), non-His-tagged (natural protein, P. horikoshii)
chain: MPIFEARVKVGISSSWVTSRKVSWRDAIAQIESDRIVVKYLKMGEVVGEDSFPFSALIDLGVRIPDELKLNPEKDHFGIKFYIPGRGELLVIFTIEENLLIYDEKKFSEFVHKVFEVLINGKTVMLQLARIIGGAVNMESKWEEGWLRVIKVKSARTQKTERSIVVIIKDKRPVSIFSDLEDIEIEEVDMNGKRVRAWKIRHFHIDQSVTSYLYIPDKQTQLYVLRYLLKYNPAIMEFIMKVSDDFPTLKSEFQEIMEKEIKELEALDEMEKQILVALYSGINPLELHQFLGVSEKEIEEIYDRMIDKGLLKIVMIRKIVDLTNEGRKIVNKLLKYGLVSM
notes: CheF, Pyrococcus horikoshii, ORF PH0494, UniProt O58230; also called PH0494; source: E. coli BL21 Gold (DE3); purified (heating to 80°C, SEC); as lysate supernatant in the pull-down
Turning to B1, the stoichiometry N (commonly a count of units in the complex or per binding partner) is 2.
